# In the DeepSol protein solubility set:
# Assay: soluble on expression in E. coli; label from the status in PepcDB or PDB records
row,Sequence,soluble on expression in E. coli
1,MASDWRRQSTSRGIPNEGQNDEKGKPLIGRSFLLEIENRILRTNVAEGLHISGATIIDSFDDASPQCVISDHPMAQKLEKAKKDDPLFKNEKMLKIMPALLRQAVNRNIKVRTPERFLNQMNTWLDRQGKTTSATTSNSTIRGKPSFGRENSAKIERTTPRLVPRMPRVSSDQTSSRPKEERCFLRIDVPGKRPEIRNVSKESFSIVYSGRDTGFSIFKAAESSLVERRQREYDSFLKGKYEPSKKTFKFDERDNYCQFCQKTILGDRKDHERTDEHRNKARTQGITQTMERIVLNARLRAERQEAALKRNQRKSRESVMFVEKSKRANVEYEYGENEIKANWLMLKANTVEKTTEKTSILSPRRRQKRMRSLSSQGDI,not soluble
2,MASETIHFSFANADVYIVARSPNNQNGTGDDTMSYSAKSFSALINAMRADGITRLEQLARQPFRNAQGFWSAEVKK,not soluble
3,MASEVQAERADVVIVGAGHGGAQAAIALRQNGFEGRVLVIGREPEIPYERPPLSKEYLAREKTFERICIRPAQFWEDKAVEMKLGAEVVSLDPAAHTVKLGDGSAIEYGKLIWATGGDPRRLSCVGADLAGVHAVRTKEDADRLMAELDAGAKNAVVIGGGYIGLEAAAVLTKFGVNVTLLEALPRVLARVAGEALSEFYQAEHRAHGVDLRTGAAMDCIEGDGTKVTGVRMQDGSVIPADIVIVGIGIVPCVGALISAGASGGNGVDVDEFCRTSLTDVYAIGDCAAHANDFADGAVIRLESVQNANDMATAAAKDICGAPVPYKATPWFWSNQYDLKLQTVGLSTGHDNAVLRGDPATRSFSVVYLKGGKVVALDCVNMVKDYVQGKKLVEARAQIAPEQLADAGVPLKEMLA,soluble
4,MASGQDKTHIDYAYELDITVKPDSRVPVFNREFATFTGAGVPLFSLGGGPIRYALAEVLAKFHARRGYYVVETPIIASTELFKVSGHIEFYRNNMYLFDIEGHEFAVKPMNCPYHILLFLNEVAKHRSKLPLPFKVFEFGRVHRYEPSGSIYGLLRVRGFTQDDAHIIVPGGRVIDVVYDVFEEMKLVLERLFKLGVSSETFKVRLSMSDKSLIGKEFMGSKEEWEGAEEALREAASRINEKYGIDIVELEGEAAFYGPKLDFIMMVEESGVSKEWQMGTIQFDFNLPRRFRLYDVVREEFGIEEVYIIHRALLGSIERFLGVYLEHRRGRMPFTLAPIQFAVIAVKTGGEVDREIEDLASSIAKGLLDKGFRVAVKGSSKTGLSSDVRHIESTAKPAVNVFIGAKEVREKVLDVRVFDLESMKRRRLAIAYGDAADAVENLAAVAEELESPVRSLSGQAPRIPADFSFML,soluble
5,MASISRARQVELLLVADASMARKYGRGLQHYLLTLASIANRLYSHASIENHIRLAVVKVVVLGDKDKSLEVSKNAATTLKNFCKWQHQHNQLGDDHEEHYDAAILFTREDLCGHHSCDTLGMADVGTICSPERSCAVIEDDGLHAAFTVAHEIGHLLGLSHDDSKFCEETFGSTEDKRLMSSILTSIDASKPWSKCTSATITEFLDDGHGNCLLDLPRKQI,soluble
6,MASKPLQFVVVERKLNVGKNAGKVMQIARPTGRHRVDFRSFCERVSKSTTFNRQEVEAVLNYATEIAKDIVSNGDIVEFGDLGTLMPSFKSKAVEQGVKFNANVHIEKPVVLFQPSKKYFTLTDVSYEQTTARPKKGTKPAPKPDTGSGGNSGEGI,not soluble
7,MASKRALVILAKGAEEMETVIPVDVMRRAGIKVTVAGLAGKDPVQCSRDVVICPDASLEDAKKEGPYDVVVLPGGNLGAQNLSESAAVKEILKEQENRKGLIAAICAGPTALLAHEIGFGSKVTTHPLARDKMMNGGHYTYSENRVEKDGLILTSRGPGTSFEFALAIVEALNGKEVAAQVKAPLVLKDLEHHHHHH,soluble
8,MASLSYPKTTMQIQLGANLKPYHTFGIEQLAAQLVVAESIDDLKALYCSAEWASLPKLIIGKGSNMLFTCHYTGMIVVNRLNGIEHQQDDDYHRLHVAGGEDWPSLVSWCVEQGIGGLENLALIPGCAGSAPIQNIGAYGVEFKDVCDYVEYLCLETGTVKRLTMEECQFGYRDSIFKHQLYQKAVVTAVGLKFAKAWQPIIQYGPLKDLSSDCAIHDVYQRVCATRMEKLPDPAVMGNAGSFFKNPVISQQAFARLQIEHPDVVAYPAEQGVKVAAGWLIDQAGLKGHQIGGAKVHPKQALVIVNTGDASAQDVLMLAADIQQRVFNCYGIELEHEVRFIGESEETNLKQWMSEQA,soluble
9,MASNRGQLNHELSKLFNELWDADQNRMKSGKDYRISLQGKAGYVPAGSNQARDSASFPLFQFVDEEKLKSRKTFATFISLLDNYEMDTGVAEVVTPEEIAENNNFLDAILETKVMKMAHDYLVRKNQAKPTRNDFKVQLYNIWFQLYSRAPGSRPDSCGFEHVFVGESKRGQEMMGLHNWVQFYLQEKRKNIDYKGYVARQNKSRPDEDDQVLNLQFNWKEMVKPVGSSFIGVSPEFEFALYTIVFLASQEKMSREVVRLEEYELQIVVNRHGRYIGTAYPVLLSTNNPDLY,soluble
10,MASPRELTQNPLKKIFMPYSNGRPALHASQRGVCMTNCPTLIVMVGLPARGKTYISKKLTRYLNFIGVPTREFNVGQYRRDMVKTYKSFEFFLPDNEEGLKIRKQCALAALNDVRKFLSEEGGHVAVFDATNTTRERRAMIFNFGEQNGYKTFFVESICVDPEVIAANIVQVKLGSPDYVNRDSDEATEDFMRRIECYENSYESLDEEQDRDLSYIKIMDVGQSYVVNRVADHIQSRIVYYLMNIHVTPRSIYLCRAGESELNLKGRIGGDPGLSPRGREFSKHLAQFISDQNIKDLKVFTSQMKRTIQTAEALSVPYEQFKVLNEIDAGVCEEMTYEEIQDHYPLEFALRDQDKYRYRYPKGESYEDLVQRLEPVIMELERQENVLVICHQAVMRCLLAYFLDKAAEELPYLKCPLHTVLKLTPVAYGCKVESIFLNVAAVNTHRDRPQNVDISRPSEEALVTVPAHQ,soluble
11,MASQADAQELAALRALSASIGLNPHMTQAAGGNTSLKAGDTLWIKASGTWLKDALSDDIMVPVAMAPLLEAVEEGDPAADKPQAFAINELNPRGLRPSIETTVHALMPQRVVLHVHCVDTISLAVQADGEAEVARRLGGIEWAYVPYCRPGLPLARGISEKLRPNVDVLILGNHGLVVAADTVAEAQRLLHRVRSLLARPARATAAPDIAALTALAADSAYRLPADLEAHAVALDPQSRRMAEAGSLYPDHVIFLGQGSVVAKPGENAAGVATRLGAAPVAILFPGAGVLVRGDASAGADAMQRCLADVTARVDVAARLNYLTAAENDELVNWDAEQYRQKLNATGGLEHHHHHH,not soluble
12,MASQLLINDSKYGFLKELGLTENNAGVFHGKWAASGQVVQSFAPANNSPIANVQNGNVQDYEIAISEAKKAYNDWCEVPAPRRGEIVRQIGDKLRTQLQNLGKLVSLEMGKISAEGVGEVQEYVDICDYATGLSRSLEGKIFPSERPGHALLEQWNPLGVVGVISAFNFPCAVYGWNNALALVTGNSVVWKPAPSTPLTAIAVTKLVEEVLVANNVNPALCSLVCGEGDVGQALVKDKRVNLVSFTGSSEIGKIVGQQVQARFGKLLLELGGNNAIIVNEDADLNMVVPATVFAAVGTAGQRCTTTRRLIVHDKVYDQVLERLKKAYAQFESRIGCPLDSNTIIGPLHNQQAVGKYKASVAEAVASGGKIEYGGKVLERDGNFVLPTIVTGLKHDSPVVLRETFAPILYVLKFSTLEEAIAINNEVDQGLSSSLFTTNIQNVFKWMGPKGSDCGIVNVNIPTSGAEIGGAFGGEKETGGGRESGSDSWRQYMRRSTCTINYSKELPLAQGIKFE,not soluble
13,MASVASCDSRPSSDELPGDPSSQEEDEDYDFEDRVSDSGSYSSASSDYDDLEPEWLDSVQKNGELFYLELSEDEEESLLPETPTVNHVRFSENEIIIEDDYKERKKYEPKLKQFTKILRRKRLLPKRCNKKNSNDNGPVSILKHQSNQKTGVIVQQRYKDVNVYVNPKKLTVIKAKEQLKLLEVLVGIIHQTKWSWRRTGKQGDGERLVVHGLLPGGSAMKSGQVLIGDVLVAVNDVDVTTENIERVLSCIPGPMQVKLTFENAYDVKRETSHPRQKKTQSNTSDLVKLLWGEEVEGIQQSGLNTPHIIMYLTLQLDSETSKEEQEILYHYPMSEASQKLKSVRGIFLTLCDMLENVTGTQVTSSSLLLNGKQIHVAYWKESDKLLLIGLPAEEIELPSSAHTHGERN,soluble
14,MASWSHPQFEKGALEDPRSLYDLPPYGDATLLYFSDLHGQAFPHYFMEPPNLIAPKPLMGRPGYLTGEAILRYYGVERGTPLAYLLSYVDFVELARTFGPIGGMGALTALIRDQKARVEAEGGKALVLDGGDTWTNSGLSLLTRGEAVVRWQNLVGVDHMVSHWEWTLGRERVEELLGLFRGEFLSYNIVDDLFGDPLFPAYRIHRVGPYALAVVGASYPYVKVSHPESFTEGLSFALDERRLQEAVDKARAEGANAVVLLSHNGMQLDAALAERIRGIDLILSGHTHDLTPRPWRVGKTWIVAGSAAGKALMRVDLKLWKGGIANLRVRVLPVLAEHLPKAEDVEAFLKAQLAPHQDHLFTPLAVSETLLYKRDTLYSTWDQLVGEAVKAIYPEVEVVFSPAVRWGTTILPGQAITWDHLYAYTGFTYPELYLFYLRGAQIKAVLEDIASNVFTSDPFYQQGGDVSRVFGLRYVLDPDAPTGERVREVEVGGRPLDPNRRYLAAAYGGRLQRVGEAKPGYEPRPIYEVLAEYLRSVGRVRVRPEPNVKVIGRNYRLPEVTG,soluble
15,MASYPCHQHASAFDQAARSRGHNNRRTALRPRRQQEATEVRPEQKMPTLLRVYIDGPHGMGKTTTTQLLVALGSRDDIVYVPEPMTYWRVLGASETIANIYTTQHRLDQGEISAGDAAVVMTSAQITMGMPYAVTDAVLAPHIGGEAGSSHAPPPALTLIFDRHPIAALLCYPAARYLMGSMTPQAVLAFVALIPPTLPGTNIVLGALPEDRHIDRLAKRQRPGERLDLAMLAAIRRVYGLLANTVRYLQCGGSWREDWGQLSGTAVPPQGAEPQSNAGPRPHIGDTLFTLFRAPELLAPNGDLYNVFAWALDVLAKRLRSMHVFILDYDQSPAGCRDALLQLTSGMVQTHVTTPGSIPTICDLARTFAREMGEAN,soluble
16,MATFNSYTVDEIREIVDPDHPETLLEQAKGWAEMADLLSEYGVLLEQRLELVEDSWTGDAARLYFDEVKRMQEYIEESAERATTNAGLWFLIGTLAGIAKHDVSYIHKLWKDLDNVTDAVGLGFILEAIGVDKAVEDFKRMPYDVASRQIMEATATAAEESYSQMRDFEEFKPPPDVDGSGPTLQSVSAVAPPGGAVSLPSTTIVSNAAMPPLGPVAMRPVVPGVIGSRPGMTSMPRPMMGPGHTVRPVIGQRTGESQQTKTPGRLIGRYGVVSATPDVDMRDPKASRIHYGGDDVNRGVIKNNDPQRAAEEARFKLEEEVLRLRERAFAHRADDLTPAHTQHVLPGIVGDDSGWDRKTHDPGPVAFEMRRRPDRDDDAWTVI,not soluble
